± gives the standard deviation.

The data set is described as follows: protein stability index of a GFP-peptide fusion (GPS, HEK-293T) (PSI 1-6); higher = more stable. The following applies: c terminus: a fixed tail appended.
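Also: 24-mer peptide tiles fused after GFP, lentivirally expressed, FACS-sorted into six equal bins by GFP/DsRed ratio, decoded by Illumina sequencing, PSI is the read-weighted mean bin number.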

Consider ICTQKCALNWTDIPVAMEHQPPYI [VPS39], for which the protein stability index is 2.25 ± 0.48 (treatment: DMSO) and 2.12 ± 0.11 (treatment: MLN4924 1 uM, 8 h).

On to IDEIISLESSYNDEMLSYLPGGTT [TFE3], for which the protein stability index runs as follows: (treatment: DMSO) 3.96 ± 0.16; (treatment: MLN4924 1 uM, 8 h) 3.88 ± 0.32.

With IDYKTTTILLDGRRVKLQLWDTSG [RAB40B], the protein stability index came to 2.42 ± 0.12 (treatment: DMSO) and 2.56 ± 0.24 (treatment: MLN4924 1 uM, 8 h).

With IEAAVQDRLNEQEGVPSVFNPPPS [FAF2], the protein stability index reads like this: (treatment: DMSO) 5.06 ± 0.17; (treatment: MLN4924 1 uM, 8 h) 5.04 ± 0.15.

Consider IERSKIVSTMRCKTRQKSEKQMEE [PPEF2], for which the protein stability index worked out at 4.5 ± 0.21 (treatment: DMSO) and 4.5 ± 0.1 (treatment: MLN4924 1 uM, 8 h).

With IEVFRRKRKMHLVFEYCDHTLLNE [CDKL4], the protein stability index by setting is: (treatment: DMSO) 2.54 ± 0.98; (treatment: MLN4924 1 uM, 8 h) 2.33 ± 0.14.

On to IFEPPVRNSGIIGGKYLGRTKVVK [EFHC1], for which the protein stability index runs as follows: (treatment: DMSO) 3.42 ± 0.3; (treatment: MLN4924 1 uM, 8 h) 3.62 ± 0.28.

For the sequence IFLNGNRERPLNVFCDMETDGGGW [TNXB], the protein stability index (treatment: DMSO) was found to be 1.91 ± 0.48 and the protein stability index (treatment: MLN4924 1 uM, 8 h) was determined as 2.67 ± 0.54.

As for IFRSKLKNRPSSEGSINKILSGLD [CDC14A], the protein stability index turned out to be 2.27 ± 0.32 (treatment: DMSO) and 2.69 ± 0.42 (treatment: MLN4924 1 uM, 8 h).

As to IGPFGGFFASGFKRAFKIKDFANT [CDS2], the protein stability index turned out to be 2.32 ± 0.27 (treatment: DMSO) and 2.15 ± 0.4 (treatment: MLN4924 1 uM, 8 h).

For IGQVHEEFKQNIENVSVEMLLRKF [FCHO1], the protein stability index is, setting by setting: (treatment: DMSO) 3.05 ± 0.3; (treatment: MLN4924 1 uM, 8 h) 3.32 ± 0.23.

With IHFTLIQAFCCENDINILRVSNPG [GADD45A], the protein stability index reads like this: (treatment: DMSO) 3 ± 0.46; (treatment: MLN4924 1 uM, 8 h) 2.71 ± 0.45.

IIHEAGYSEEECKQYKAVVYSNTI [GNAI1]: the protein stability index by setting is: (treatment: DMSO) 2.81 ± 0.04; (treatment: MLN4924 1 uM, 8 h) 2.77 ± 0.45.

Take IIVNLLWFIHLVFVVLAFLTGVLC [TMEM192]: the protein stability index runs as follows: (treatment: DMSO) 2.78 ± 0.58; (treatment: MLN4924 1 uM, 8 h) 2.3 ± 0.48.

Regarding IKALFRKGKVLAQQGEYSEAIPIL [FKBP8], the protein stability index worked out at 2.54 ± 0.38 (treatment: DMSO) and 2.36 ± 0.42 (treatment: MLN4924 1 uM, 8 h).

IKEVQKGGPADLAGLEDEDVIIEV [PDZK1]: the protein stability index is, setting by setting: (treatment: DMSO) 2.22 ± 0.27; (treatment: MLN4924 1 uM, 8 h) 2.49 ± 0.12.

On to ILDTAGTEQFTAMRDLYMKNGQGF [RAP1B], for which the protein stability index stood at 3.29 ± 0.36 (treatment: DMSO) and 3.46 ± 0.36 (treatment: MLN4924 1 uM, 8 h).

Turning to ILREFEELHRRLDEEQQVLLSRLE [TRIM39], the protein stability index reads like this: (treatment: DMSO) 3.43 ± 0.3; (treatment: MLN4924 1 uM, 8 h) 3.63 ± 0.12.

In the case of IMPDGTIVTTVTTVQSRPRIDGKL [C2CD2L], the protein stability index came out at 3.31 ± 0.16 (treatment: DMSO) and 3.29 ± 0.39 (treatment: MLN4924 1 uM, 8 h).

As for INHGAEVTCKDKKGYTPLHAAASN [ANKRD44], the protein stability index by setting is: (treatment: DMSO) 4.23 ± 0.16; (treatment: MLN4924 1 uM, 8 h) 4.2 ± 0.24.

Consider INIKGISEAKADKILAEAAKLVPM [RAD51], for which the protein stability index runs as follows: (treatment: DMSO) 2.62 ± 0.15; (treatment: MLN4924 1 uM, 8 h) 2.42 ± 0.15.

For the sequence INLEGKTFYSKKDRPLCKSHAFSH [PDLIM7], the protein stability index by setting is: (treatment: DMSO) 2.55 ± 0.077; (treatment: MLN4924 1 uM, 8 h) 2.71 ± 0.33.

For the sequence INTLNGLKLQTKTIKVSYARPSSA [ELAVL3], the protein stability index was determined as 2.38 ± 0.2 (treatment: DMSO) and 2.39 ± 0.26 (treatment: MLN4924 1 uM, 8 h).

For the sequence IQYEMEYTEGISQRMRVPEKLKVA [MFF], the protein stability index stood at 2.98 ± 0.28 (treatment: DMSO) and 3.08 ± 0.64 (treatment: MLN4924 1 uM, 8 h).

Regarding IRINPQSWFDNGSICMRMEILGCP [CPXM2], the protein stability index turned out to be 2.86 ± 0.53 (treatment: DMSO) and 2.68 ± 0.59 (treatment: MLN4924 1 uM, 8 h).

As for IRNEQFAIRRFQSMPVRLLGHSPV [CDC25B], the protein stability index is, setting by setting: (treatment: DMSO) 2.71 ± 0.4; (treatment: MLN4924 1 uM, 8 h) 2.71 ± 0.21.

Consider ITMYAVGVGKAIEEELQEIASEPT [MATN2], for which the protein stability index is 3.18 ± 0.13 (treatment: DMSO) and 3.16 ± 0.19 (treatment: MLN4924 1 uM, 8 h).

ITVGLVFLCLQYRLRGKLRAEIEN [MOG]: the protein stability index is, setting by setting: (treatment: DMSO) 3.18 ± 0.42; (treatment: MLN4924 1 uM, 8 h) 3.29 ± 0.33.

As for IVLAACSDYFCAMFTSELSEKGKP [KLHL12], the protein stability index runs as follows: (treatment: DMSO) 2.76 ± 0.42; (treatment: MLN4924 1 uM, 8 h) 3.05 ± 0.64.

Take IYLATSSSKFYDLFLMECEESPNG [RHOBTB1]: the protein stability index is 2.66 ± 1.7 (treatment: DMSO) and 2.71 ± 0.98 (treatment: MLN4924 1 uM, 8 h).

As to KAEECDTITLNCPRNSDMKNQGEE [EDARADD], the protein stability index (treatment: DMSO) was determined as 5.62 ± 0.32 and the protein stability index (treatment: MLN4924 1 uM, 8 h) amounted to 5.51 ± 0.31.

KAELGALPHDFIDSLEKTDDDKYK [NLN]: the protein stability index worked out at 5.31 ± 0.2 (treatment: DMSO) and 5.2 ± 0.32 (treatment: MLN4924 1 uM, 8 h).

On to KANNLSSLSKKYRQDAKYLNMRST [SEC22B], for which the protein stability index was 3.23 ± 0.11 (treatment: DMSO) and 3.33 ± 0.24 (treatment: MLN4924 1 uM, 8 h).

Take KAPSTDDATWAAVAACTKEIDTQG [C10orf62]: the protein stability index was 5.14 ± 0.2 (treatment: DMSO) and 5.11 ± 0.09 (treatment: MLN4924 1 uM, 8 h).

As to KATFMYEQFPELMNMLWSRMLKDN [CLINT1], the protein stability index is, setting by setting: (treatment: DMSO) 2.28 ± 1.1; (treatment: MLN4924 1 uM, 8 h) 2.37 ± 0.4.

As to KCKKKITGEIMHALKMTWHVHCFT [PDLIM7], the protein stability index (treatment: DMSO) was 2.81 ± 0.81 and the protein stability index (treatment: MLN4924 1 uM, 8 h) came out at 2.7 ± 0.12.
